Values of other authors as cited in patent US20180134803A1, “TREATMENT OF HER2-POSITIVE BREAST CANCER” (Genentech, Inc., priority 2016, published 2018).

What was measured:
[1] = tested on: incurable, locally advanced, recurrent or metastatic solid tumors
[2] = in vivo

In the case of “Pertuzumab: antibody comprising the variable light and variable heavy amino acid sequences in SEQ ID NOs: 7 and 8; HER dimerization inhibitor”, the confirmed partial responses ([1]; Phase I, IV every 3 weeks) is listed as “Two”, the “tumor regression, patients evaluable for response” value ([1]; Phase I, IV every 3 weeks) is listed as 3 of 20 and the tolerability ([1]; in vivo, iv) is listed as “generally well tolerated”. The mean clearance [2] was 2.69 to 3.74 mL/day/kg and the “mean terminal elimination half-life” value [2] was 15.3 to 27.6 days.
